In US20230407326A1, “INDUCIBLE PROMOTER FOR VIRAL VECTOR PRODUCTION” (ASKLEPIOS BIOPHARMACEUTICAL, INC., priority 2020, published 2023):

B1: SYNP-HYP-001: synthetic hypoxia-inducible promoter, four HRE2 and a CMV minimal promoter, SEQ ID NO: 3 (nucleic acid)
DNA: CTGCACGTACTGCACGTACTGCACGTACTGCACGTATGGGTACCGTCGACGATATCGGATCCAGGTCTATATAAGCAGAGCTCGTTTAGTGAACCGTCAGATCGCCTAGATACGCCATCCACGCTGTTTTGACCTCCATAGAAGATCGCCACC
B2: FMP-02: forskolin-inducible promoter, 8×AP1(1) TFBS with MinTK, SEQ ID NO: 8 (nucleic acid)
DNA: TGAGTCAGATGATGCGTAGCTAGTAGTTGAGTCAGATGATGCGTAGCTAGTAGTTGAGTCAGATGATGCGTAGCTAGTAGTTGAGTCAGATGATGCGTAGCTAGTAGTTGAGTCAGATGATGCGTAGCTAGTAGTTGAGTCAGATGATGCGTAGCTAGTAGTTGAGTCAGATGATGCGTAGCTAGTAGTTGAGTCAGTAGTCGTATGCTGATGCGCAGTTAGCGTAGCTGAGGTACCGTCGACGATATCGGATCCTTCGCATATTAAGGTGACGCGTGTGGCCTCGAACACCGAGCGACCCTGCAGCGACCCGCTTAA
B3: FORCSV-10: forskolin-inducible promoter, 5×cAMPRE and 3×AP1(2) TFBS with SV40-MP, SEQ ID NO: 6 (nucleic acid)
DNA: TGACGTCACGATTACCATTGACGTCACGATTACCATTGACGTCACGATTACCATTGACGTCACGATTACCATTGACGTCAGCGATTAAGATGACTCAGCGATTAAGATGACTCAGCGATTAAGATGACTCAGCGATTAAGATGACTCACTAGCCCGGGCTCGAGATCTGCGATCTGCATCTCAATTAGTCAGCAACCATAGTCCCGCCCCTAACTCCGCCCATCCCGCCCCTAACTCCGCCCAGTTCCGCCCATTCTCCGCCCCATCGCTGACTAATTTTTTTTATTTATGCAGAGGCCGAGGCCGCCTCGGCCTCTGAGCTATTCCAGAAGTAGTGAGGAGGCTTTTTTGGAGGCCTAGGCTTTTGCAAA
B4: TATA-m6a: forskolin responsive enhancer element in combination with TATA-m6A minimal promoter, SEQ ID NO: 209 (nucleic acid)
DNA: AATAAAATATCTTTATTTTCATTACATCTGTGTGTTGGTTTTTTGTGTGCCATTGACGTCACGATTTGACGTCAACCATTGACGTCACGATTTGACGTCAACCATTGACGTCACGATTTGACGTCACGATTTGACGTCAACCATTGACTCACGATTTGACTCAACCATTGACTCACGATTTGACTCAACCATTGACTCACGATTTGACTCACGATTTATAAAAGGCAGAGCTCGTTTAGTGAACCGAAGCTTGGACTAAAGCGGACTTGTCTCGAG

Tests used:
Format in all cases: cell-based, human
HEK293-F cells [1] = test: Luciferase expression from hypoxia-inducible promoters in transiently transfected HEK293-F cells under hypoxia; conditions: hypoxia 5% oxygen, 3, 5 and 24 hrs
Protocol: (§1) 40 ml of cells were grown in a 250 ml vented Erlenmeyer flask (Sigma-Aldrich CLS431144) at 37° C., 20% O2, 8% CO2 with agitation at 100 rpm. Cells were seeded as described in the manufacturer's instructions (300,000 cells/ml). HEK293-F were obtained from Thermofisher, R79007.
(§2) One day before transfection, the cells were counted using a haemocytometer and split to 500,000 cells/ml.
On the day of transfection, the cells are seeded to 1,000,000 cells/ml in 500 μl of appropriate medium (Freestyle 293 expression medium, 12338002) in a 24 well plate. 0.625 μg of DNA per well was then added to 10 μl of OptiMem medium (Thermofisher; 11058021) and incubated for 5 minutes at room temperature. […]
After transfection the cells were incubated for 24 hrs in normoxia conditions (20% oxygen) before being switched to a gas mix of 5% oxygen, 10% carbon dioxide and 85% nitrogen (hypoxia). […] Induction of the promoters was assessed by using luciferase activity after 3, 5 and 24 hrs in hypoxia.
Luciferase activity was measured using LARII (Dual Luciferase Reporter 1000 assay system, Promega, E1980).
Media was removed from the cells at the respective time point (0, 3, 5, 24 hrs after induction). […] 10 μl of supernatant was pipetted into white 96-well plate and luminescence measured by addition of 50 μl of LARII substrate. […]

HEK293-F cells [2] = test: Luciferase expression from forskolin-inducible promoters in HEK293-F cells after induction with forskolin; conditions: 20 μM forskolin
Protocol: The forskolin-inducible promoters FORCSV-10, FOR-CMV-009, FMP-02 and FLP-01 were used to drive expression of luciferase in a PM-RQ vector in the suspension cell line HEK293-F. The tested promoters were synthesized directly upstream of the ATG of PM-RQ plasmid and the suspension cell lines were transiently transfected with the PM-RQ plasmid.
as §1, §2
On the day of transfection, the cells are seeded to 1,000,000 cells/ml in 500 μl of appropriate medium (Freestyle 293 expression medium, 12338002) in a 24 well plate. 0.625 μg of DNA per well was then added to 10 μl of OptiMem medium (Thermofisher; 11058021) and incubated for 5 minutes at room temperature.
Concurrently, 0.625 μl of Max reagent (Thermofisher, 16447100) was made up to 10 μl by addition of OptiMem and incubated for 5 minutes at room temperature. […]
24 hours after transfection, the promoters were induced by addition of 20 μM forskolin and luciferase activity was measured 0, 3, 5 and 24 hours after induction. Luciferase activity was measured as previously described.

Pro10 cells = test: Rep78 expression (western blot) from new forskolin promoter designs in Pro10 cells; conditions: Pro10, 10 uM forskolin or DMSO, 24 hrs
Protocol: Each of the promoters were tested for their ability to induce expression of the Rep78 protein. To eliminate the expression of Rep52 the ATG start codon in Rep52 was mutated to an AGG. All constructs were synthesized by Genewiz, see sequence files for full plasmid.
Pro10 cells were cultured and transfected using lipofectamine 2000 as previously described herein above. 24 hrs after transfection 10 uM forskolin was added to the cells. Control wells were given DMSO as forskolin was dissolved in this carrier. After another 24 hrs the cells were then lysed and lysates were analyzed for Rep78 expression via western blot (previously described). The best performing promoters were the TATA-m6a, YB and pJB42 (FIG. 29). […] The rest of the promoters have some level of background which indicates leaky expression.

Molecule	promoter strength relative to the other promoters (HEK293-F cells [2])	also measured
B1		promoter activity (luciferase) relative to the other promoters (HEK293-F cells [1]): stronger
B2	weakest	
B3	strongest	
B4		Rep78 expression (western blot) (Pro10 cells): no Rep78 expression in the absence of forskolin but strong expression on the presence
